From PMC8682759

B1: AcP-TRap1 (structured_RNA)
RNA: GGAUCCAAGCUUGUUUGGCUCCAACCGUCCCCGCGUAUAUGGCCUAGAUAAAUUCGGAGCUUUUUGCCCAUCCUCAUAUAUUGCUUUCGACGGAGAAUUC
B2: AcP-TRap2 (structured_RNA)
RNA: GGAUCCAAGCUUGUUUGGCAUUCCACGUCGAUAAAAGAUUGGCCUAGAUAAAUUCGGAGCUUAAAAUUCCCUCCUAUCUUUUGCUUUCGACGGAGAAUUC
B3: AcP-TRap3 (structured_RNA)
RNA: GGAUCCAAGCUUGUUUGGCCCAAUAACGUCGAUUGAUUGUGGCCUAGAUAAAUUCGGAGCUUUCAAUGAAUUACACAACAAUGCUUUCGACGGAGAAUUC
B4: AcP-TRap4 (structured_RNA)
RNA: GGAUCCAAGCUUGUUUGGCCCAAUUCCUCGUCUUCAGACUGGCCUAGAUAAAUUCGGAGCUUGUUCACAACCUCUACUUCCUGCUUUCGACGGAGAAUUC

The binders below were run against beta-actin (monomeric, G-actin) (human, UniProt P60709 2-375) (assay: fluorescence turn-on of BHQ1 probe; apparent; 10 mM Mg2+, BHQ1 probe; 10 mM Tris-HCl pH 7.6, 100 mM KCl, 10 mM MgCl2 (Kd assays), room temperature; RNA 3 uM with actin 3 uM preincubated 30 min at 25 C, then probe 1 uM (final) in 2).

| Binder | Kd |
| --- | --- |
| B1 | 1500 nM |
| B2 | 600 nM |
| B3 | 1000 nM |
| B4 | 200 nM |
